Assay results reported in patent US20130041017A1, “SIRNA-BASED THERAPY OF FIBRODYPLASIA OSSIFICANS PROGRESSIVA (FOP)” (The Trustees of the University of Pennsylvania, published 2013).

Molecular target: T1, ACVR1 Arg206His mutant (R206H; c.617G>A), mutated Activin A type I receptor protein (human)
T1 chain: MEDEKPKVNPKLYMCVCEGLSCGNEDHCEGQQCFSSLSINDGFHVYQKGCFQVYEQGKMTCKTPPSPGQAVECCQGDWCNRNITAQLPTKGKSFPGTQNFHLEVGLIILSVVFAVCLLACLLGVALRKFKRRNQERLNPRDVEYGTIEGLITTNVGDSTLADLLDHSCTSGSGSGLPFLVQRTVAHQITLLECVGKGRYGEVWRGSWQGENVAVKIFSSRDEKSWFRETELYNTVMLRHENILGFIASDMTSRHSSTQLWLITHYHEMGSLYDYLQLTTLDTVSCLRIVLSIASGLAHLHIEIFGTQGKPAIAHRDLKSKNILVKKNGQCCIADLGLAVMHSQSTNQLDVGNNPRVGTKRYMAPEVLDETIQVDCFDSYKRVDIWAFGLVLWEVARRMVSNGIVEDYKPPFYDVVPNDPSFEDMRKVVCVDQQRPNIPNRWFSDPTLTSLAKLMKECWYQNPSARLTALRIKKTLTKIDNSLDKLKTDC
Assay: cell-based or functional assay

B1: Human recombinant BMP4 (ligand)
chain: SPKHHSQRARKKNKNCRRHSLYVDFSDVGWNDWIVAPPGYQAFYCHGDCPFPLADHLNSTNHAIVQTLVNSVNSSIPKACCVPTELSAISMLYLDEYDKVVLKNYQEMVVEGCGCR
phosphorylated Smad1/5/8 (pSmad1/5/8) by immunoblotting: ~2 fold
